Key:
Akt = Akt phosphorylation (pAkt S473) immunoblot in HeLa cells; format: cell-based; conditions: 10 μM, 6 h, DAPLE-depleted HeLa cells transfected with myc-DAPLE WT
Procedure: For immunoblotting, protein samples were separated by SDS-PAGE and transferred to PVDF membranes (Millipore). Membranes were blocked with PBS supplemented with 5% nonfat milk (or with 5% BSA when probing for phosphorylated proteins) before incubation with primary antibodies. Infrared imaging with two-color detection and band densitometry quantifications were performed using a Li-Cor Odyssey imaging system exactly as done previously (Garcia-Marcos et al, 2011a; Garcia-Marcos et al, 2010; Garcia-Marcos et al, 2012; Garcia-Marcos et al, 2011b; Ghosh et al, 2010). All Odyssey images were processed using Image J software (NIH) and assembled into figure panels using Photoshop and Illustrator software (Adobe).

Rac1 = Rac1 activity pulldown assay with GST-PBD in HeLa cells; format: cell-based; conditions: 10 μM, 6 h, DAPLE-depleted HeLa cells transfected with myc-DAPLE WT
Procedure: Rac1 activity in HeLa cells lines was monitored using GST-tagged PAK1-binding domain (PBD; pGEX-PBD) as described previously (Benard & Bokoch, 2002). Briefly, Escherichia coli strain BL21 bacteria transformed with pGEX-PBD were grown at 37° C. and GST-PBD expression was induced at OD600 with 1 mM IPTG for 3 h at 37° C. with shaking. Bacterial lysates were prepared as described above in protein purification section, cleared of debris by centrifugation and subsequently aliquots of lysates were stored at −80° C. until use. Aliquots of bacterial lysates were thawed, cleared of precipitated proteins by centrifugation at 14,000×g for 20 min, and the cleared supernatant was subsequently incubated with glutathione beads overnight at 4° C. with constant tumbling to prepare purified bead-bound GST-PBD freshly for each assay.
To analyze the role of DAPLE in regulation of Rac1 activity HeLa cells were used. For assays done on cells at steady-state, cells were maintained overnight in a media containing 2% or 0.2% FBS prior to lysis. […]

Gαi2 = target: T1, Gαi2 (Rattus norvegicus, UniProt P04897); assay: GST pulldown of His-DAPLE-CT with GST-Gαi2; format: binding; conditions: compared to Gαi1 and Gαi3
T1 construct: made in house; host or cells: E. coli BL21 (DE3)
T1 sequence (P04897 whole entry): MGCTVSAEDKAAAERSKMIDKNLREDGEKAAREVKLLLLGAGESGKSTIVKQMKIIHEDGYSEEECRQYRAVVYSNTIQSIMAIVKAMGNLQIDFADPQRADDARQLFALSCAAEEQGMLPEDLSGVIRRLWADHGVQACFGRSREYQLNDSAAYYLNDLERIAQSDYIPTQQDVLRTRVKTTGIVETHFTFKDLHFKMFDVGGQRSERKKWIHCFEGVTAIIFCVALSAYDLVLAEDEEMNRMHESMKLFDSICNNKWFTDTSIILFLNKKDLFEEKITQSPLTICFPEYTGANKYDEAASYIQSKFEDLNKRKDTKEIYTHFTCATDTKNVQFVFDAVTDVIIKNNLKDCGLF

Gαo = target: T2, Gαo (Rattus norvegicus, UniProt P59215); assay: GST pulldown of His-DAPLE-CT with GST-Gαo; format: binding
T2 construct: made in house; host or cells: E. coli BL21 (DE3)
T2 sequence (P59215 whole entry): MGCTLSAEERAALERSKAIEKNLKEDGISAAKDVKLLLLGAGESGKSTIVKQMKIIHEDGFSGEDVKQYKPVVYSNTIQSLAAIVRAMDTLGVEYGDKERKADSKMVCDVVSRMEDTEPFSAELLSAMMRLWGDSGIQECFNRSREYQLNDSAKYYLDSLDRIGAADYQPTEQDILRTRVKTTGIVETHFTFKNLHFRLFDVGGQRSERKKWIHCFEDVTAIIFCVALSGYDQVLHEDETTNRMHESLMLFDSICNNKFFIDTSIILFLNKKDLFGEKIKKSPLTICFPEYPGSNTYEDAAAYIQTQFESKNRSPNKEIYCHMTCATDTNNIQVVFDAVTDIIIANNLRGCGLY

His-Gαi3 [1] = target: T3, His-Gαi3 (Rattus norvegicus, UniProt P08753); assay: Steady-state GTPase assay; format: biochemical; conditions: in vitro assays
T3 construct: His; made in house; host or cells: E. coli BL21 (DE3)
Procedure: Under the experimental conditions of steady-state GTPase assays, GTP hydrolysis occurs as a two-step reaction, i.e., 1) GDP is released from the G protein and exchanged for GTP, and 2) the GTP loaded is hydrolyzed. Nucleotide exchange is the rate limiting step in this process because it is ˜50-100 times slower than GTP hydrolysis by Gαi subunits (Mukhopadhyay & Ross, 2002). Thus, the steady-state GTPase activity reflects the rate of nucleotide exchange, and was performed as described previously (Garcia-Marcos et al, 2010; Garcia-Marcos et al, 2012; Garcia-Marcos et al, 2011b). Briefly, His-Gαi3 (100 nM) was preincubated with different concentrations of His-DAPLE-CT (aa 1650-2028) for 15 min at 30° C. in assay buffer [20 mM Na-HEPES, pH 8, 100 mM NaCl, 1 mM EDTA, 2 mM MgCl2, 1 mM DTT, 0.05% (w:v) C12E10]. GTPase reactions were initiated at 30° C. by adding an equal volume of assay buffer containing 1 μM [γ-^32P]GTP (˜50 c.p.m/fmol). […] Samples were then centrifuged for 10 min at 10,000×g, and 500 μl of the resultant supernatant were scintillation counted to quantify released [^32P]Pi. For the time course experiments, data was expressed as raw c.p.m. For the dose-dependence curve experiments, the background [^32P]Pi detected at 15 min in the absence of G protein was subtracted from each reaction and data expressed as percentage of the Pi produced by His-Gαi3 in the absence of His-DAPLE-CT.

Gαi3 = target: T4, Gαi3 (Rattus norvegicus, UniProt P08753); assay: GST pulldown of His-DAPLE-CT with GST-Gαi3; format: binding
T4 construct: made in house; host or cells: E. coli BL21 (DE3)
Procedure: Purified GST-Gαi3 or GST alone (5 μg) were immobilized on glutathione-Sepharose beads and incubated with binding buffer [50 mM Tris-HCl (pH 7.4), 100 mM NaCl, 0.4% (v:v) Nonidet P-40, 10 mM MgCl2, 5 mM EDTA, 30 μM GDP, 2 mM DTT, protease inhibitor mixture] for 90 min at room temperature as described before (Garcia-Marcos et al, 2011a; Ghosh et al, 2010; Ghosh et al, 2008; Lin et al, 2011). Lysates (˜250 μg) of Cos7 cells expressing appropriate myc-DAPLE constructs or purified His-DAPLE-CT (aa 1650-2028) protein (3 μg) were added to each tube, and binding reactions were carried out for 4 h at 4° C. with constant tumbling in binding buffer [50 mM Tris-HCl (pH 7.4), 100 mM NaCl, 0.4% (v:v) Nonidet P-40, 10 mM MgCl2, 5 mM EDTA, 30 μM GDP, 2 mM DTT]. Beads were washed (4×) with 1 mL of wash buffer [4.3 mM Na2HPO4, 1.4 mM KH2PO4 (pH 7.4), 137 mM NaCl, 2.7 mM KCl, 0.1% (v:v) Tween 20, 10 mM MgCl2, 5 mM EDTA, 30 μM GDP, 2 mM DTT] and boiled in Laemmli's sample buffer. In some experiments the ‘active’ conformation of the G protein was stabilized by replacing GDP in the binding and wash buffers with 30 μM GTPγS or a mixture of 30 μM GDP/30 μM AlCl3/10 mM NaF. Immunoblot quantification was performed by infrared imaging following the manufacturer's protocols using an Odyssey imaging system (Li-Cor Biosciences).

GST-FZD7R-CT = target: T5, GST-FZD7R-CT (Homo sapiens, UniProt O75084); assay: GST-FZD7-CT pulldown of His-Gαi3; format: binding; conditions: His-Gαi3 preloaded with GDP, in the presence of DAPLE-CT
T5 construct: the GST-tagged cytoplasmic tail of FZD7R; made in house; host or cells: bacteria (E. coli BL21 (DE3)); plasmid a gift of R. Yao
Procedure: GST-FZD7-CT and GST-PBD constructs were immobilized on glutathione-Sepharose beads directly from bacterial lysates by overnight incubation at 4° C. with constant tumbling. Next morning, GST-FZD7-CT immobilized on glutathione beads were washed and subsequently incubated with His-tagged DAPLE-CT or Gαi3 proteins at 4° C. with constant tumbling. Washes and immunoblotting were performed as previously.

[2] = target: T6, GST-Gαi3·Gβγ preformed complexes (Rattus norvegicus, UniProt P08753); assay: Gβγ displacement assay; format: binding; conditions: 0.05-1 μM WT or 1 μM F1675A
T6 construct: made in house; host or cells: E. coli BL21 (DE3) for GST-Gαi3; Gβγ endogenous from HEK293T lysate
Procedure: This assay was performed as described previously (Garcia-Marcos et al, 2009). Briefly, GST alone or GST-Gαi3 proteins immobilized on glutathione-agarose beads were incubated overnight at 4° C. with HEK293T cell lysates in binding buffer [50 mM Tris-HCl, pH 7.4, 100 mM NaCl, 0.4% (v:v) NP-40, 10 mM MgCl2, 5 mM EDTA, 2 mM DTT, protease inhibitor cocktail supplemented with 30 μM GDP]. Unbound Gβγ-subunits were washed twice with the same buffer and proteins bound to the glutathione-agarose beads divided into equal aliquots containing ˜5 μg (˜0.4 μM) GST-fusion proteins. Aliquots were incubated with increasing concentrations (0.05-1 μM) of purified His-DAPLE-CT (1650-2028) wild-type or 1 μM His-DAPLE-CT F1675A in binding buffer supplemented with GDP (˜200 μl) for 5 h at 4° C. Glutathione-agarose beads were washed and bound proteins eluted by boiling in Laemmli sample buffer and separated by SDS-PAGE.

Gαi1 = target: T7, Gαi1 (Rattus norvegicus, UniProt P10824); assay: GST pulldown of His-DAPLE-CT with GST-Gαi1; format: binding
T7 construct: made in house; host or cells: E. coli BL21 (DE3)
T7 sequence (P10824 whole entry): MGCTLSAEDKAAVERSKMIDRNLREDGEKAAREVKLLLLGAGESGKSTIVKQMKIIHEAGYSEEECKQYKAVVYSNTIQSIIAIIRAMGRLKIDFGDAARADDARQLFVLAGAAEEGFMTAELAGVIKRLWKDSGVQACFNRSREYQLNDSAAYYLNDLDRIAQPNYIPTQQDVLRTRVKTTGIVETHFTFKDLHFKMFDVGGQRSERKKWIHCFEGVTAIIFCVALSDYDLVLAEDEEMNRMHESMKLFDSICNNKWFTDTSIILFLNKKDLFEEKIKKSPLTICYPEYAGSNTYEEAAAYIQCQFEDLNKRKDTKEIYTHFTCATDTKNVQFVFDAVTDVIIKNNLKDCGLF

His-Gαi3 [3] = target: T3, His-Gαi3; assay: GTPγS binding assay; format: biochemical; conditions: 0-2 μM, 15 min
Procedure: GTPγS binding was measured using a filter binding method as described previously (Garcia-Marcos et al, 2010; Garcia-Marcos et al, 2011b). His-Gαi3 (100 nM) was preincubated with different concentrations of His-DAPLE-CT (aa 1650-2028) for 15 min at 30° C. in assay buffer [20 mM Na-HEPES, pH 8, 100 mM NaCl, 1 mM EDTA, 25 mM MgCl2, 1 mM DTT, 0.05% (w:v) C12E10]. Reactions were initiated at 30° C. by adding an equal volume of assay buffer containing 1 μM [^35S] GTPγS (˜50 c.p.m/fmol). Duplicate aliquots (25 μl) were removed at different time points, and binding of radioactive nucleotide was stopped by addition of 3 ml, ice-cold wash buffer (20 mM Tris-HCl, pH 8.0, 100 mM NaCl, 25 mM MgCl2). The quenched reactions were rapidly passed through BA-85 nitrocellulose filters (GE Healthcare) and washed with 4 ml wash buffer. Filters were dried and subjected to liquid scintillation counting. To determine the specific nucleotide binding, the background [^35S]GTPγS detected in the absence of G protein was subtracted from each reaction and data expressed as percentage of the [^35S] GTPγS bound by His-Gαi3 in the absence of His-DAPLE-CT.

Row | Molecule | Akt activity (Akt) | Rac1 activity (Rac1) | binding to Gαi2 (Gαi2) | binding to Gαo (Gαo) | GEF activity, activation of nucleotide exchange (His-Gαi3 [1]) | binding to Gαi3 (Gαi3) | increase of Gαi3 binding to GST-FZD7R-CT (GST-FZD7R-CT) [fold] | displacement of Gβγ from pre-assembled complex with GST-Gαi3 [2] | binding to Gαi1 (Gαi1) | initial rate of nucleotide (GTPγS) binding by His-Gαi3 (His-Gαi3 [3])
1 | O=C1OC2(c3ccccc31)c1ccc(O)c(O)c1Oc1c2ccc(O)c1O [Gallein] | effectively inhibited | effectively inhibited | – | – | – | – | – | – | – | –
2 | His-DAPLE-CT: purified His-tagged DAPLE C-terminus (aa 1650-2028, containing the GBA motif) (protein, listed as Homo sapiens, His tag) GTAPPYVGVRPCSASPSSEMVTLEEFLEESNRSSPTHDTPSCRDDLLSDYFRKASDPPAIGGQPGPPAKKEGAKMPTNFVAPTVKMAAPTSEGRPLKPGQYVKPNFRLTEAEAPPSVAPRQAQPPQSLSLGRPRQAPVPPASHAPASRSASLSRAFSLASADLLRASGPEACKQESPQKLGAPEALGGRETGSHTLQSPAPPSSHSLARERTPLVGKAGSSCQGPGPRSRPLDTRRFSLAPPKEERLAPLHQSATAPAIATAGAGAAAAGSGSNSQLLHFSPAAAPAARTKPKAPPRSGEVATITPVRAGLSLSEGDGVPGQGCSEGLPAKSPGRSPDLAPHLGRALEDCSRGSVSKSSPASPEPGGDPQTVWYEYGCV | – | – | partially reduced | not with Gαo | 2.5-3 fold | interacts | ~5 | displaced | interacts | increased
